To fix the notation:
B1: Lipopolysaccharide-induced tumor necrosis factor-alpha factor (Homo sapiens), Q99732 (parent)
chain: MSVPGPYQAATGPSSAPSAPPSYEETVAVNSYYPTPPAPMPGPTTGLVTGPDGKGMNPPSYYTQPAPIPNNNPITVQTVYVQHPITFLDRPIQMCCPSCNKMIVSQLSYNAGALTWLSCGSLCLLGCIAGCCFIPFCVDALQDVDHYCPNCRALLGTYKRL
B2: Keratin, type II cytoskeletal 6A (Homo sapiens), P02538 (parent)
chain: MASTSTTIRSHSSSRRGFSANSARLPGVSRSGFSSVSVSRSRGSGGLGGACGGAGFGSRSLYGLGGSKRISIGGGSCAISGGYGSRAGGSYGFGGAGSGFGFGGGAGIGFGLGGGAGLAGGFGGPGFPVCPPGGIQEVTVNQSLLTPLNLQIDPTIQRVRAEEREQIKTLNNKFASFIDKVRFLEQQNKVLETKWTLLQEQGTKTVRQNLEPLFEQYINNLRRQLDSIVGERGRLDSELRGMQDLVEDFKNKYEDEINKRTAAENEFVTLKKDVDAAYMNKVELQAKADTLTDEINFLRALYDAELSQMQTHISDTSVVLSMDNNRNLDLDSIIAEVKAQYEEIAQRSRAEAESWYQTKYEELQVTAGRHGDDLRNTKQEIAEINRMIQRLRSEIDHVKKQCANLQAAIADAEQRGEMALKDAKNKLEGLEDALQKAKQDLARLLKEYQELMNVKLALDVEIATYRKLLEGEECRLNGEGVGQVNISVVQSTVSSGYGGASGVGSGLGLGGGSSYSYGSGLGVGGGFSSSSGRAIGGGLSSVGGGSSTIKYTTTSSSSRKSYKH
partner: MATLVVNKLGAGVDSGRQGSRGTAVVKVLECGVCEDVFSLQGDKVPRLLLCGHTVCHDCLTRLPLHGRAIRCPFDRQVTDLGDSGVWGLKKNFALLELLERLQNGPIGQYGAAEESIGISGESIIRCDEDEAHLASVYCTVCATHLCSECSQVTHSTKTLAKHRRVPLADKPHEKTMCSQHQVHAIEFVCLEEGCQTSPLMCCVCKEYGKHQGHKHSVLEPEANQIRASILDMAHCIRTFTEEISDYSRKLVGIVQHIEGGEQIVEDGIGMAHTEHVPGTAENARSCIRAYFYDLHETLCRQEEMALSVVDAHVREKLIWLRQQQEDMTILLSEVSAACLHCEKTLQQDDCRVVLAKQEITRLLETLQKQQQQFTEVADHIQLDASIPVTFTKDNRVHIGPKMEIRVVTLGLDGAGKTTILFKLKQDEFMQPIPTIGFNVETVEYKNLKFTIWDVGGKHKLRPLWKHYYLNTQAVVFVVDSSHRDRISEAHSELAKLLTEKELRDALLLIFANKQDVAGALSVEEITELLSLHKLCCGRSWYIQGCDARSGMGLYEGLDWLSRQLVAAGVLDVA

One assay covers variants of B1. As to conditions: with UBQLN1, Q9UMX0-2.
Sequence of UBQLN1, Q9UMX0-2 (Q9UMX0 other isoform, or with tags, fused parts or gaps): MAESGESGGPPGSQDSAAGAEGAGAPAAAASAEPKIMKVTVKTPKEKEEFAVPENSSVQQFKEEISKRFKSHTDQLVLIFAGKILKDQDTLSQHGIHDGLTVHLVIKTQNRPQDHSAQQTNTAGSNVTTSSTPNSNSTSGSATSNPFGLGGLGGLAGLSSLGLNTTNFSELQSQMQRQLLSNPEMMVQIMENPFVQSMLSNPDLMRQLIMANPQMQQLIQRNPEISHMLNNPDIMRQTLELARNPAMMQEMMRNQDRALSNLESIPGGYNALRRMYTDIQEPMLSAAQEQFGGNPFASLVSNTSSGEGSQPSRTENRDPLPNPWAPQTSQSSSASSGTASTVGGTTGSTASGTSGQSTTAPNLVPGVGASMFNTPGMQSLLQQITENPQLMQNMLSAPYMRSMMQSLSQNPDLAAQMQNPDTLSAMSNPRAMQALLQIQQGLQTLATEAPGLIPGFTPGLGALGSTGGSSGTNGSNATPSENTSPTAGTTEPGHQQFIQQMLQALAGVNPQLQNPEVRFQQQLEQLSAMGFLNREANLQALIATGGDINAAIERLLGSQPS
With G112S, the “effect of a mutation on the interaction” value is listed as “disrupting interaction strength”.

Variants of B1 are the subject of the next assay. Particulars: with stam2_human STAM2, O75886.
In the case of G112S, the “effect of a mutation on the interaction” value is “disrupting interaction strength”.

The variants in the next assay derive from B1. Particulars: with reep6_human REEP6, Q96HR9.
Sequence of reep6_human REEP6, Q96HR9 (Q96HR9 whole entry): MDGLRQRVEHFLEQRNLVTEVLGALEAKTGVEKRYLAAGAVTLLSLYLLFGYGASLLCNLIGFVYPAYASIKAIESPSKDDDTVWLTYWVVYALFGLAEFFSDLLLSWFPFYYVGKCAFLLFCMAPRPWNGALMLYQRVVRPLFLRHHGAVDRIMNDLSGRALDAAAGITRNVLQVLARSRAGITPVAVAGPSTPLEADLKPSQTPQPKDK
For G112S, the “effect of a mutation on the interaction” value is “disrupting interaction strength”.

Variants of B1 are the subject of the next assay. Particulars: with hgs_human HGS.
In the case of G112S, the “effect of a mutation on the interaction” value is “disrupting interaction strength”.

In a further assay the parent is B1. As to conditions: with OPTN.
G112S: the “effect of a mutation on the interaction” value is on record as “disrupting interaction strength”.

Variants of B2 are the subject of another assay. Particulars: with tri23_human TRIM23, P36406.
On to N171K, for which the “effect of a mutation on the interaction” value is recorded as “disrupting interaction strength”.

N21S: the “effect of a mutation on the interaction” value is recorded as “with no effect”.

As for T552S, the “effect of a mutation on the interaction” value is “with no effect”.

With F174V, the “effect of a mutation on the interaction” value is recorded as “with no effect”.

For the variant V523F, the “effect of a mutation on the interaction” value is recorded as “with no effect”.

Turning to I462S, the “effect of a mutation on the interaction” value is given as “disrupting interaction strength”.
